From the supplement of paper PMC12042874 come the findings set out here.

± gives the uncertainty stated by the source.

The nature of this data set: amyloid nucleation score (Sup35N fusion, yeast selection) (log enrichment); library NNK1; higher = more nucleation; inactive = no reads after selection. A digest of the protocol:
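Using DiMSum, nucleation scores were taken as the log enrichment of output over input reads, centred on the mode score of non-aggregating sequences. The input and output reads came from Illumina sequencing of plasmid inserts, with sequences under 100 input reads excluded. The yeast were psi-negative, expressed Sup35N fused to peptides of 20 random codons, were induced with 100 μM copper sulfate for 24 hours, and were grown 7 days at 30°C on medium lacking adenine and uracil.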
In turn, RNSITEIPCPEMYSNNRLAF returned an amyloid nucleation score of 1.13 ± 0.12.

For the substance MFMHELHMVDP, the amyloid nucleation score was -0.873 ± 0.77.

For the substance SESSYGSSSRTTESSVCVSG, the amyloid nucleation score was -0.008 ± 0.52.

Turning to VCGRGKGDD, the amyloid nucleation score is -0.107 ± 0.27.

With GMLDAY, the amyloid nucleation score entry is “inactive”.

As for IPCDFDRISSSVFAKCNYSI, the amyloid nucleation score is -0.455 ± 0.24.

Regarding MLFCVTRSVFSENCSLSLCT, the amyloid nucleation score result is “inactive”.

Substance SGQIQFIMIR gave an amyloid nucleation score of 0.727 ± 0.67.

As to GGIYANYNFGYLARTESGLG, the amyloid nucleation score was 1.04 ± 0.7.

Take VTILWTKSYMESDISFYIMW: the amyloid nucleation score is -1.03 ± 0.44.

Take THGVSWQLVRDAILNGGPKR: the amyloid nucleation score is -1.12 ± 1.3.

VRPNGVYSFRWTYGFPIQRA displayed an amyloid nucleation score of 0.321 ± 0.6.

LWFGSHLTNCVKYDLKGESV came in with an amyloid nucleation score of 1.41 ± 0.47.

Regarding SSIVIRTCKWYGTVCIWELL, the amyloid nucleation score is -0.339 ± 0.39.

For the substance IYCVGDFVP, the amyloid nucleation score is -0.026 ± 0.35.

For CYKLGYGFVHFSAIMVNIIS, the amyloid nucleation score was -1.22 ± 1.7.

RACFRVIYWFSLLDKVGETV: the amyloid nucleation score was -0.427 ± 1.1.

Substance ITKNRPARNRLLRTGMYFLL returned an amyloid nucleation score of 0.004 ± 0.29.

As to YFRVLGN, the amyloid nucleation score was -0.011 ± 0.3.

Regarding KEFMRWHQTPRFVKKTHVRG, the amyloid nucleation score is -0.834 ± 1.4.

As for RFNWFL, the amyloid nucleation score was -0.285 ± 0.86.

Substance AFLTQTSHSQTT yielded an amyloid nucleation score of 0.048 ± 0.74.

FCNTLCAFW had an amyloid nucleation score of 1.91 ± 0.22.

HSGSDSAITVVSLGIRE: the amyloid nucleation score was -0.19 ± 0.91.

As to RSADTLVEKNLIYGRWVRKS, the amyloid nucleation score was 0.93 ± 1.

Consider IESWCLMSVNSDGARWSSRF, for which the amyloid nucleation score was -0.872 ± 0.83.

For IFEIAESDLVYDHFSHYFKR, the amyloid nucleation score was -0.033 ± 0.67.

Consider VVCGIPVFNLRYL, for which the amyloid nucleation score was -0.495 ± 0.42.

For KNKPL, the amyloid nucleation score amounted to 2.72 ± 0.15.

For the substance QYSHDRRFLPGMVHVRLFLE, the amyloid nucleation score was 0.662 ± 0.38.

The substance FRLLRSK registered an amyloid nucleation score of 0.644 ± 0.56.

In turn, FWYSNIYSIFMLPVIVWEPN displayed an amyloid nucleation score of 6.515 ± 0.053.

SCVFLGSWWRCGWMPGSHVP: the amyloid nucleation score is 1.93 ± 0.29.

Regarding GCRPMSFKMSVAVGHLMGDT, the amyloid nucleation score turned out to be 2.79 ± 0.2.

Substance FRIRRGKRSVHTVNFAFAEV yielded an amyloid nucleation score of 0.583 ± 0.8.

Take SFISKLLNYVVAFCVVCDEI: the amyloid nucleation score came out at 0.127 ± 0.5.

In the case of TGVRHATTC, the amyloid nucleation score was determined as 1.13 ± 0.19.

As for LLCTYISTEAPIVTFLRLTY, the amyloid nucleation score is -0.667 ± 0.44.

As for FGFFWV, the amyloid nucleation score came out at 0.099 ± 0.7.

On to DMLFPAMRYAVHDVSVSAGN, for which the amyloid nucleation score is 0.582 ± 0.64.

With MSKINFFVNMAGL, the amyloid nucleation score came to 5.19 ± 0.062.

For RKLFYG, the amyloid nucleation score was -0.017 ± 0.39.

As for FIVHANWQSFYFLLRLMVF, the amyloid nucleation score was -0.109 ± 1.

In the case of YNEERGCSAC, the amyloid nucleation score was -0.209 ± 0.33.

AGHLGWARFVYTLLSEDTVH came in with an amyloid nucleation score of 0.031 ± 0.79.

As to EKQCVVDFL, the amyloid nucleation score was -1.26 ± 1.7.

LGRGTKMLLKVYTVRTSNYR displayed an amyloid nucleation score of 0.592 ± 0.58.

GEKYNIFNFGFVLCSSLVLF showed an amyloid nucleation score of 8.116 ± 0.049.

In turn, NVGRSAICVRSCRMSLVFDG showed an amyloid nucleation score of 0.11 ± 0.35.

Consider SALILVFFYWA, for which the amyloid nucleation score is 1.31 ± 0.3.

Turning to SQHDRKYHYTIGYAQELDGL, the amyloid nucleation score is -0.235 ± 0.43.

Consider VNSCFSQYYKGHPTLMHERL, for which the amyloid nucleation score came to 0.01 ± 0.39.

In the case of YVCDKFYGNAQCF, the amyloid nucleation score was found to be 0.644 ± 0.4.

NSWSFGPSGTQFGLSLFYGL: the amyloid nucleation score is -0.979 ± 2.7.

TKTTVHCFSSMIQYCAAPTL: the amyloid nucleation score is -0.158 ± 0.73.

For the substance VRVPLRSKMSNPRLMSRQAA, the amyloid nucleation score came to 0.089 ± 0.49.

Regarding FWSYLSGLVGMYGQIVIKKA, the amyloid nucleation score is 0.059 ± 0.79.

Regarding FLSYYTCILFPGDMHGSYLS, the amyloid nucleation score came out at 7.226 ± 0.055.

On to WCVFAFMKSQQCK, for which the amyloid nucleation score was -0.112 ± 0.22.

In turn, HRTFA gave an amyloid nucleation score of 0.465 ± 0.35.

As for TVRQTGRVPMTGLIMFW, the amyloid nucleation score worked out at 1.95 ± 0.19.

HKLFNALNPKKG displayed an amyloid nucleation score of 0.532 ± 1.2.

As for EGGRFKHRMNSCHYNSFGLH, the amyloid nucleation score is -0.255 ± 0.76.

For GFFVNNCLFSILLDFWVSEE, the amyloid nucleation score was determined as 1.24 ± 0.26.

As for CNSRNITT, the amyloid nucleation score is -0.345 ± 0.67.

For NLYVNN, the amyloid nucleation score is -0.623 ± 1.

Take RKLFDCGINACSLRYVTSYR: the amyloid nucleation score result is “inactive”.

SNPRTFNDPSKPRV registered an amyloid nucleation score of 0.518 ± 0.35.

Substance LCALSEVLVLCDSY returned an amyloid nucleation score of 0.29 ± 0.96.

Take VWRTYVGPVCSMLAG: the amyloid nucleation score amounted to 0.641 ± 0.32.

FSSYPLGFRNRRDTVDMTIV showed an amyloid nucleation score of 0.018 ± 0.38.

YSGHWLVHLPCHHQVR: the amyloid nucleation score is -0.028 ± 0.46.

For the substance SCLCFLNPTNFEKLLISFVP, the amyloid nucleation score is 0.725 ± 0.53.

Take TVFGVL: the amyloid nucleation score is 0.705 ± 0.77.

Regarding ERRQSEKPGLLPSWS, the amyloid nucleation score is 0.46 ± 1.2.

Turning to IYPILVMSASQA, the amyloid nucleation score is 0.549 ± 0.69.

In turn, SKASMEGYW returned an amyloid nucleation score of 0.739 ± 0.54.

As for RIVSSFLLSVVGCGMEVVRV, the amyloid nucleation score amounted to 0.349 ± 0.63.

In turn, HSQLLGMPFTSSVDS returned an amyloid nucleation score of 0.635 ± 0.97.

In turn, NPCWTVYLEFL returned an amyloid nucleation score of 0.186 ± 0.27.

As to VDVCCDGYRYLW, the amyloid nucleation score was -0.754 ± 0.39.

Turning to RRYRSWGGV, the amyloid nucleation score is -0.267 ± 0.35.

Consider LLASRPEG, for which the amyloid nucleation score is -0.437 ± 0.35.

As to VLRFGRWSYFVGVLPEKKRQ, the amyloid nucleation score was -1.18 ± 2.4.

In the case of PSMEWWGL, the amyloid nucleation score worked out at 0.158 ± 0.88.

Substance LDCELLQRNFSNTKGHPIYR returned an amyloid nucleation score of 0.052 ± 0.35.

For the substance GTMDMSQGYSQVCLDFIVHG, the amyloid nucleation score was -0.626 ± 1.2.

For FCNVQIFFAVITHPFYSTLL, the amyloid nucleation score was 1.48 ± 0.24.

As for FEQCPIFRRGRLLRSNAVCA, the amyloid nucleation score is -0.145 ± 0.33.

On to RPQYLCAAVHEVQRFGHNR, for which the amyloid nucleation score is -0.79 ± 0.51.

Take SCRSLDAMDKSWS: the amyloid nucleation score was determined as 1.5 ± 0.52.

HIMEIVESFTIETRMIKGCV had an amyloid nucleation score of 0.874 ± 0.53.

Regarding SSDMGFFARYLSLNH, the amyloid nucleation score came out at 0.512 ± 0.55.

Turning to TMGVTIYGCWCDLNTSLVFG, the amyloid nucleation score is -0.104 ± 0.24.

The substance YWDEIRCNSKNFDPCPFKAS had an amyloid nucleation score of 0.54 ± 0.19.

The substance LFWASVSSWYDGEGVGKPDV had an amyloid nucleation score of 0.134 ± 0.47.

For TSVTSVMWPYSPNGYLAVFR, the amyloid nucleation score was -0.062 ± 1.2.

In turn, DFGFLF returned an amyloid nucleation score of 0.851 ± 0.37.

On to LLGDMMALQAYSELLRFMSG, for which the amyloid nucleation score is -0.234 ± 0.61.

On to FVHPLMYSDS, for which the amyloid nucleation score is -0.386 ± 0.43.

DLDCFRFVLSLGDFMGRCVS gave an amyloid nucleation score of 0.266 ± 0.42.

In the case of QDLICVFMGCVIS, the amyloid nucleation score amounted to 7.942 ± 0.044.

Take INYFRWGDIFVYSNSKSSRL: the amyloid nucleation score is 0.511 ± 0.17.

For the substance VMDGYVSGCFLWRCCNRNRS, the amyloid nucleation score came to 2.92 ± 0.12.

As to GVVGVNSADLFNGKIVIKFS, the amyloid nucleation score was determined as 1.81 ± 0.2.

FNLALDRGR: the amyloid nucleation score is -0.062 ± 0.32.

SLHILISH registered an amyloid nucleation score of 0.537 ± 0.39.

LTVKCCDVSWVRFWYCIAGG returned an amyloid nucleation score of 6.618 ± 0.056.

On to NFIFVR, for which the amyloid nucleation score came out at 0.706 ± 0.53.

For the substance KCMFVESKSRDNCVMSNES, the amyloid nucleation score was -0.055 ± 0.9.

Take SIRFMLYVRVKR: the amyloid nucleation score was -0.234 ± 0.66.

Turning to LERKMYRNISSLTVVGYTMS, the amyloid nucleation score is -0.095 ± 0.51.

Regarding IGAGPRL, the amyloid nucleation score was -0.623 ± 0.27.

VKGVD: the amyloid nucleation score amounted to 1.19 ± 0.64.

ALVRL came in with an amyloid nucleation score of 0.085 ± 0.46.

As for YKSNKWSPSQKRKG, the amyloid nucleation score was -1.37 ± 2.7.

Substance VPYVRMNVR showed an amyloid nucleation score of 2.24 ± 0.14.

With QYAIFRLSKTWIIHSMDKNA, the amyloid nucleation score worked out at 0.269 ± 0.21.

IWIMWGYRSLDTMLHS: the amyloid nucleation score was determined as 0.047 ± 0.77.

For the substance GLWLQL, the amyloid nucleation score was 0.216 ± 0.26.

As to YSESVCSLLPQYSPVHPLFT, the amyloid nucleation score amounted to 0.891 ± 0.97.

With TDCHALRMWIFAGFWWHNFS, the amyloid nucleation score was -1.04 ± 0.84.

Take YRFQTSISNCYSAERDWGT: the amyloid nucleation score worked out at 1.37 ± 0.42.

In the case of GAILENYALFESRTYFMLHC, the amyloid nucleation score amounted to 0.383 ± 0.66.

In the case of FAKVESLLWAGICTGRDEVM, the amyloid nucleation score is -0.318 ± 0.46.

For ALFVVCYRYFVESGTKWRRT, the amyloid nucleation score is -0.009 ± 0.28.

Regarding ECCQDVIFFVAQINTCIEVT, the amyloid nucleation score was found to be 0.221 ± 0.37.

In the case of CLISP, the amyloid nucleation score entry is “inactive”.

The substance EAARMWSFNGNLSVFWIT returned an amyloid nucleation score of 5.72 ± 0.097.

In turn, SSYVMVCMKTYWCQEL yielded an amyloid nucleation score of 2.45 ± 0.18.

In the case of IRSAN, the amyloid nucleation score came to 0.918 ± 1.1.

Consider IKALMIC, for which the amyloid nucleation score entry is “inactive”.

Regarding FRYGYLFKLSNVWIDDMLRR, the amyloid nucleation score stood at 1.96 ± 0.55.

Take NSRGT: the amyloid nucleation score was -0.28 ± 0.34.

CFLIVHLNSRSDTCHEGSEC: the amyloid nucleation score is -0.081 ± 0.54.

With NVNETT, the amyloid nucleation score is -0.547 ± 1.6.

As for MGSVVHRKVEVHGRFKCGAT, the amyloid nucleation score worked out at 0.477 ± 0.93.

Consider QSPKQILWR, for which the amyloid nucleation score was found to be 1.11 ± 0.63.

In turn, ELGGVWN gave an amyloid nucleation score of 0.701 ± 0.58.

With IFGGLH, the amyloid nucleation score is 0.631 ± 0.5.

MRLMVGYRRCFASLVKNVCT: the amyloid nucleation score was -0.963 ± 1.8.

FSMVAESRIEGILRFS: the amyloid nucleation score came to 0.409 ± 0.22.

With PNLPGSKDNLTDRF, the amyloid nucleation score is 0.488 ± 1.2.

For the substance VRTPRRCCSY, the amyloid nucleation score was -0.096 ± 0.28.

GLLVGLQQCYNYGWKGSDCN gave an amyloid nucleation score of 0.504 ± 0.75.
